# Experiment: soluble on expression in E. coli; label from the status in PepcDB or PDB records
row,Sequence,soluble on expression in E. coli
1,VKLVIDLLGAQTRSHLRGIGRYTRELTKALLRQAGEAHAIHLVLHAPLEQASDALIAEFGALLPRARIHLLRLPRHTSEHLTGNTWRHHAASRLSRYGLTCLDADVVWHSSVFEGYDEDGVLPDAPLFHTNRVATLYDLIPLHDPEVFLPGSLPKAWYERRSAFLSSCDLLFCLSEWTAQEAVQRLHLDPERLVVIGGGVDSNFRPLVFDAQQRGNLLARFSITRPYVLYNGGLDQRKNVPALLRAFALLPMAIRQRHQLVVLGDDREVHRPMMALCRQLGLDQQEVVFTGRVNDSDLVALYGLCALFVFPSRLEGFGLPVLEAMACGAPTLCSDAASLPEVAGRQDILFPPEDHVALSARMSQVLDDPQWLQSLRDYGLRRATAFTWDRVAQRALDALTRLQVRSSEMKSQRVSEVSPATHTETAAPEMLPITEIQLVTDLAALPGDASRDDLAQAAFSICSMRVAPQAPQWLVDVSQIAKTDIGTGTSRVTRSILREWLSTPPPGVCIVPVYLREGQYHYARSFTAQVLGLVSETPQEGIVMVYPGDVFVGLDWAPEAINAARARLQDWRRVGVATCFVVHDLLPMTLPDCFHPYSRNLFEQWLRTVAHLADAIACISATTAEVLSRWLQDTTVDYQFGIPPQVKHFPLGVSFPEVSTAQEAIREELRTALVMRPTLLIVGTLEPRKGHVHALRICEQLWEQGEDVNLVVVGQRGWSEQALVMRLTRHPEVGRRLFWLSDAADAELSALYVHATALLALSEGEGYGLPLLEAAHFRLPILARPLPVFLEIMADYPHYLDGTAPDTWSATVAQWLHASDRPISRPVPIASWKESAQQLADIVNDCRFLLDSKKLSAPLK,soluble
2,MCIIKPMDDVVKFIHEVGSLKLTPRSGWLKLGIRLPESVAEHSFRAAIIAFILALKSGESVEKACKAATAALFHDLHEARTMDLHKIARRYVSCDEEGAREEQLSWMESKPDFSDVEVYVSDADKLELAFQGVEYSQQVSYAIRFAENVELKTDAAKEIYRVLMERKNPVWWR,soluble
3,SLSELMGKRVLIIDDNLTSQKILINQAQSWGMFTCAVDSGEKALEWLKRGITFDVAILDMNLPDMNGLELVREIRKQPNCTRLPLIMLSAITETEKTFQSSEEEFVAVLCKPVQRSQLYNVLMEIFSEIPRAPIRVTEG,soluble
4,GYMPPIEHLQNPIDKYASQLISADGKVFGSYAHSGDNRIYTRYNEISPDLIKALIATEDVRFRKHSGIDSKGLFRAVVKRGILNQKSGGGGSTITQQLAKLLYSPRTETKLGRLFQKPIEWVIAVKLERFYTKEEIITMYLNYFDFLYNAVGIKSAAYTYFGKQPADLKIEEAAVLVGMCKNPAYYNPVLHGETERCRGRRNIVLEQMYKAKYITKAECDSLQKLPLVTSFHRITHRDGEAPYFRERLRQVLMAKKPERKNYLAWQDDQYRADSIAWETDPVYGWCNKNKKADGSNYNIYTDGLKIYTTIDLRMQQYAEEAMVKQMKEVLQPIFDKEKRGRSYAPFSRDITSDEQRSILLRAMKQTDRWREMKKAGISESEIRASFNKKRKMQVWNWRGTIDTVMSPLDSIKYLKGILRTGFMAMNPHNGHIKAYVGGINFRNFQYDMVSQGRRQVGSTIKPFLYSLSMLEGISPCDEMLHVSQTLFTESGKAWTPKNTGARRTGEMVSIKWGLQNSSNWVTAYLMGRTSPYTFVRLLRS,not soluble
5,MGSDKIHHHHHHMPFKAKDQQGNIVLATDFKSVLEIRKNFPKGSLFCPFCQTLMFPRKRQNTSLHFVHTHPCTTVMEHHPESPEHLQGKLEISKYFQEVYKGMIDAQEAFIEIEHPISEAGKNGRIADVAVVFSTGYRIIGECQLAKIEAADIYQRTQDYYSISADVLWFLGGAADTPENRQAAVDLDVFAGTINFTYST,not soluble
6,MSLGYWGVMGNCFRRLSLFGQPTQAKYEMLCSSDDLETEELTFFLDMTYKDFGVYQNDIISHQKDTETMKTLLGLLPMYKKTKLRHTVMERCLSNCPNHVKDALCVELMKAEKILQTMDVVFMKTLIGEFSMCTENLNQLLNKFATDQSTLSDVEKINSLIEIDGENSKRLLVELDPILHEETGLYQALPNVVTEAPSEKVKSIRVESEGESV,not soluble
7,MSLRFVDDEGHYNVSFFHVNDVHAHLDQFASSGTSCDDPEKGCYGGYARIKTKVTELREQYPDNLWLNAGDEFQGTLFYTYYGGEKIAETLNELKFDAMTLGNHEWDGGDEALGQFLLNLTFPIVSCNVKSEVESLNETIKNYHIFEEHEIAVIGATTTTTPGISSVGNTTTFLDPVAEVQKAVWQIRNETEVNRIILLSHLGYEEDQDLAAKTEGISLIIGGHSHTLLGDMEDAKGDYPTMVEDLNGHEVFIVTAYRWGEYLGAIDLTFDDDGHALAYHGAPIHMDNSTSLDEELDTKIQGWAEAFADFAAEVLGETDAVLVQETCQEGDCLLGQVMADAMYEYRYNQTEGTDDEPALALINSGGVRAEINEGPITRGEVLTAFPFGNAIVELEFSGADLRKILEGAVSYVNQFNGDEITSWFQVSRGVRIEFNPDNEPGDRLVNVTIQGEAIDDERDYRVVTLDFLAGGGDSIFVATDDFITLDTQDEVLTQYIVARTPLSPELEERVVENDGEGHHHHHH,soluble
8,MGSSHHHHHHSSGRENLYFQGHMHALSPLALAALIVATAPAFADEAKKPGTVFKDCKDCPEMVVLPAGSFTMGTPDDEVGRQPDEGPLHDVTFAKPFAISRYQVTAGELDAYLKATGVKLADGDTRPGRECIAGKPRYQQGPRQPAVCVDYNDVKNYAAWLSKKTGKRYRMLSEAEREYGARAGSAGPFPFPFDEGKEYSIAKHANTYGASDGYNFTSPVGSFPPNAFGVYDMHGNVYEWVADCWHDHYNGAPSDGSAWMEEKCELVQIRGNDWGEPPIFSRSGNRNNAAPSDRGDWIGFRVAREL,soluble
9,PEMKIVMTSTTEVMEEVLVVAYGTAKKSAFTGSAKMIHTEQITKRPVTNVIESLSGQVAGLQMTMTNGQPGETPSILIRGISSMSAKTDPLIVLDGMPYEGGWNNINPADVESISVLKDAASTALYGARGANGVIIITTKSAKAGD,not soluble
10,MAHHHHHHMTNKSYPTSLVTTPKVRRKSSEHGTFHNSSPKKKNRDIRDFFTANKCNESVEKSWNNNINKRSYHDSPMNDSPNTTLKFLSKKYKTEIN,soluble
11,KKLKKIVNSYINLGFEVTTKRETIQIDDLVPTQATVYEDELYGRAYELKRGLAEPIIVIKTNNNEKYILVDGHHRAVAACLSDIKELEAHVLEIDTDKKMGIEKTAEKQGLKSLSDIKILDEDKMNCSSAYKLKANILEM,not soluble
12,IEAENHKVTDKIKNAQPFLVDVVPAKSVIPELNDDAQKTLLHAGPPIQWSEMTGPMKGACIGAALFERWADNEEDALKIFEAGEVRFIPCHHVKAVGPMGGITSGNMPVFVVENRLEGNEAYCILNEGIGKVLRFGAYSQEVVDRLDWIKDVLGPTIAKALKLSEEGLNLNVLIARSITMGDEFHQRNIAASLNFLKELSPLIIKTDIPEDQKYEVIKFLADTDQFFLNVMMATGKAIVDGARKDTNGTIVTTMTRNGVNFGVRIAETGDQWHTAPVNTPKGLYFTGFSEEDGNPDVGDSAITETVGVGAMAMVAAPGVTRFVGAGGFEDALATSNEMAKICEGNNPTFSIPTWDFQGTCLGIDIRKVVELGITPIINTGIAHKNAGVGQIGAGTVRAPLGCFEKALEAYAEKLGITVE,not soluble
13,AETIVMASTTSTEQSGLFGHLLPAFKKASGIDIKVVAQGTGQALDMARRGDADVLFVHDQVAEEKFVADGYAVKRYPVMYNDFILVGPAKDPAGVKGNDIVAALGKLAKDNADFISRGDKSGTHAAELRFWKQTGSDSKGSGYKECGCGMGPALNMGSSMNAYVLSDRGTWLSFKNPGELKILVEGDKRLFNQYGVMVVNPAKFPHVKAKAAQQFVDWVTSKAGQDAIASYQV,not soluble
14,MKLTGKQTWEFENPLFVNSSGTAVGPKEKEGPLGHLFDKSYDEMHCNQKNWEMAERKLMEDAVQSALSKQNLKKEDIDIFLAGDLLNQNVTANYVARHLKIPFLCLFGACSTSMESIAISSALIDGGFAKRALAATSSHNATAERQFRYPTEYGGQKPGTATSTVTGSGAVVLSQQPGGIKITSATVGRVIDLGITDSQDMGSAMAPAAADTIKQHLEDLGRTPDDYDLILTGDLSGVGSPILKDLLKEEGINVGTKHNDCGLMIYTPDQQVFAGGSGCACSAVVTFAHIFKEIEAGRLNRVLVVATGALLSPTIIQQKESIPCIAHGVVFERAERGNALEHHHHHH,soluble
15,MSADGAEADGSTQVTVEEPVQQPSVVDRVASMPLISSTCDMVSAAYASTKESYPHVKTVCDAAEKGVRTLTAAAVSGAQPILSKLEPQIASASEYAHRGLDKLEENLPILQQPTEKVLADTKELVSSKVSGAQEMVSSAKDTVATQLSEAVDATRGAVQSGVDKTKSVVTGGVQSVMGSRLGQMVLSGVDTVLGKSEEWADNHLPLTDAELARIATSLDGFDVASVQQQRQEQSYFVRLGSLSERLRQHAYEHSLGKLRATKQRAQEALLQLSQVLSLMETVKQGVDQKLVEGQEKLHQMWLSWNQKQLQGPEKEPPKPEQVESRALTMFRDIAQQLQATCTSLGSSIQGLPTNVKDQVQQARRQVEDLQATFSSIHSFQDLSSSILAQSRERVASAREALDHMVEYVAQNTPVTWLVGPFAPGITEKAPEEKK,soluble
16,MNLEGLEMIAVLIVIVLFVKLLEQFGLIEAGLEDSVEDELEMATVRHRPEALELLEAQSKFTKKELQILYRGFKNECPSGVVNEETFKEIYSQFFPQGDSTTYAHFLFNAFDTDHNGAVSFEDFIKGLSILLRGTVQEKLNWAFNLYDINKDGYITKEEMLDIMKAIYDMMGKCTYPVLKEDAPRQHVETFFQKMDKNKDGVVTIDEFIESCQKDENIMRSMQLFENVI,soluble
17,SMGGPQYGIAREDVVLNRILGEGFFGEVYEGVYTNHKGEKINVAVKTCKKDCTLDNKEKFMSEAVIMKNLDHPHIVKLIGIIEEEPTWIIMELYPYGELGHYLERNKNSLKVLTLVLYSLQICKAMAYLESINCVHRDIAVRNILVASPECVKLGDFGLSRYIEDEDYYKASVTRLPIKWMSPESINFRRFTTASDVWMFAVCMWEILSFGKQPFFWLENKDVIGVLEKGDRLPKPDLCPPVLYTLMTRCWDYDPSDRPRFTELVCSLSDVYQMEKDIAME,soluble
18,MSLTASSSEEKADKSQELVIYSNSVSNGRGDWLTAKAKEAGFNIKMVDIAGAQLADRVIAEKNNAVADMVFGIGAVDSNKIRDQKLLVQYKPKWLDKIDQSLSDKDNYYNPVIVQPLVLIGAPDVKEMPKDWTELGSKYKGKYSIYGLQGGTGRAILASILVRYLDEKGDLGVSEKGWEVAKEYFANAYTLQKGESSVVKALDKESPIQYGMIWGSGALIGQKEQNVEFKVMTPEIGVPFVTEQTMVLSTSKKQALAKEFIDWFGQSEIQVEYSKKFGSIPANKDALKELPEDTKKFVDQVKPQNIDWEAVGKHLDEWVEKAELEYVKEGHHHHHH,soluble
19,SPINPYKDHMSVLKAYYAMNMEPNSDELLKISIAVGLPQEFVKEWFEQRKVYQYSNSR,soluble
20,MNTRIKPVRSFLFVPGNKESMLDKAAQAGADALILDLEDSVPSPEKTAARELVAKKIPELIAQNQRIWVRINRTAHIYDLDDILAVAPAGIEGIYISKPGGPEDVYMASCMIAEAEARANLPLGSIGLIPLLETARSMQLCYDIAQMPRVAGIVGATARNADMGRALKFVWTAEGRETEYLKSRVVMAARAAGKQAIGGLWQQIKDLDGLAKSSAFDRQLGMSGELVLHPMQVETINRTYTPTAEDVAYYQGMIEALDAAQAQGRASVMYEGEHIDIAHVKTAHEVIALAQSFGNLEHHHHHH,soluble
21,GMCVEKTPWELVIDFHGHTCPDIALGYRIAQLAQREMGIRPAPDSECLVKAYTQSCALDAIQVLNKATIGRHALIIEETHRYMYQFHFTGTQDIHQFTVSPAVLDHLETLRHPDLSPRERQNKVLEGVQYVLTLEESAFCHYDKIPGQLSKIV,soluble

# Source: the DeepSol protein solubility set
